Experimental findings from patent publication US8754193 (dated 2014) are described below.

In one assay the target is Streptavidin-PE (Streptomyces avidinii, UniProt P22629). Kind of assay: yeast.
The target of assay [1] is T1, TrkB (human, UniProt Q16620). The assay is described as follows: yeast.
Another assay deals with GAPDH (human, UniProt P04406). Kind of assay: yeast.
In assay [2] the target is T1, TrkB. Kind of assay: competition, solution phase.
In a further assay the target is T2, TrkA/Fc (human, UniProt P04629).
T2 chain: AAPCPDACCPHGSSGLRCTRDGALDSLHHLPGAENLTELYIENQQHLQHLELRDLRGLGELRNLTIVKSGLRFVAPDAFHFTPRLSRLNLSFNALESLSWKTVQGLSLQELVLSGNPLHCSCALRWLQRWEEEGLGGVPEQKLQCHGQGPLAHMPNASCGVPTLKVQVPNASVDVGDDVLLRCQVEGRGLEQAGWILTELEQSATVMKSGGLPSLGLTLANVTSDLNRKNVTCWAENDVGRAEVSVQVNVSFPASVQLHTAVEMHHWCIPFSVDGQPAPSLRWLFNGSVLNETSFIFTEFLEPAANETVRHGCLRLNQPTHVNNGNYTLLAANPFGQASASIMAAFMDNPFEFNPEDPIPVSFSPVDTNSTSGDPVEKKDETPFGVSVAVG
The assay is described as follows: yeast.

The next assay deals with TrkC/Fc (human, UniProt Q16288). Kind of assay: yeast.
The target in assay [3] is T1, TrkB. The assay is described as follows: yeast. This is another data set of the same source.
For assay [4], the target named is T1, TrkB. Kind of assay: FACS, soluble GFAb on TrkB-loaded beads. On the technique in general: A flow cytometer gives signals particle by particle.
The target of assay [5] is T1, TrkB. The assay is described as follows: yeast. The source holds these as a separate data set.

T1 sequence (Q16620 32-430): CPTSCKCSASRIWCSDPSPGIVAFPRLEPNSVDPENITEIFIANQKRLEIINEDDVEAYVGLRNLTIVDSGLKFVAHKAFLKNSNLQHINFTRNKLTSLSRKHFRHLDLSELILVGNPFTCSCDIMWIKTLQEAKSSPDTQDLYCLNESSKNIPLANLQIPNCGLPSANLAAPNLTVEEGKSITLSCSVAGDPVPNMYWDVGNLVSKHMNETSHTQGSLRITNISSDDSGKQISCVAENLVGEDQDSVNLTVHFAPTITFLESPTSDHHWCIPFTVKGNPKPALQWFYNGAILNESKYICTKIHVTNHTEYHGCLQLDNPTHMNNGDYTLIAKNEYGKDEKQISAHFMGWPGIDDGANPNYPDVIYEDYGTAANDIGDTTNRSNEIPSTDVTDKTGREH
Chain of Streptavidin-PE (P22629 37-163): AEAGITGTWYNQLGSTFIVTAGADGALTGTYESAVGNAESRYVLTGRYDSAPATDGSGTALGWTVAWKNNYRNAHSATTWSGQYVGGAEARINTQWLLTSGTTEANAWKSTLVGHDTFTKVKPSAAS
Chain of GAPDH (P04406 2-335): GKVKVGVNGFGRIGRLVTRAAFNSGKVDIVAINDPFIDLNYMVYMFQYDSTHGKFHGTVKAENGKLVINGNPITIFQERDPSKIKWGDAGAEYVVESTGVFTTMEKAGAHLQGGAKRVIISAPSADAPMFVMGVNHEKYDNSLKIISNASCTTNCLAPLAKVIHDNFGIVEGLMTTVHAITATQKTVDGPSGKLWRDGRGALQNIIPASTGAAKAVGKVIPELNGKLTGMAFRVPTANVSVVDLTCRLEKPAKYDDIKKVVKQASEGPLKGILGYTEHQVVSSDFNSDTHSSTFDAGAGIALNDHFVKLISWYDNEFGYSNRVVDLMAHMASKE
Chain of TrkC/Fc (Q16288 32-429): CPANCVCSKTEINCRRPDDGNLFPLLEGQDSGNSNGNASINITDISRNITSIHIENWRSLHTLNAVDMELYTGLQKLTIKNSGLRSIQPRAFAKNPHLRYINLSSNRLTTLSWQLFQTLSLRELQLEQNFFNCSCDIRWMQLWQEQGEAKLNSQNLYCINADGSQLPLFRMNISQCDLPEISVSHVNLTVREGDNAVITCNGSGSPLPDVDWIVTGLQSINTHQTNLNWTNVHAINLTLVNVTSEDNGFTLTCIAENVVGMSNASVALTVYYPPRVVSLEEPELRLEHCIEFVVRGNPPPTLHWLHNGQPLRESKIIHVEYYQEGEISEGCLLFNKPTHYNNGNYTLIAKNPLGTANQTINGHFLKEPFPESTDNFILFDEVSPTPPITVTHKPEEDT

B1: GFAb 2.17 (designed binder)
chain 1: not shown
chain 2: KARMRLFLM
chain 3: EYGDTLLS
modifications: conjugate with phycoerythrin
Consider B1, for which the equilibrium dissociation constant (Kd) (in general, a measure of binding affinity in units of concentration) in the assay with Streptavidin-PE is 110 nM.

B2: T3 172-173 loop only (designed binder)
chain 1: not shown
chain 2: LKQHFWSTPRTTS
chain 3: NAWVVHRR
Consider B2, for which, in the assay with TrkB [1], the Kd came to 300 nM.

B3: GFAb G6 (designed binder)
chain 1: not shown
chain 2: RVSRFLLTT
chain 3: KSRIISSQ
Regarding B3, in the assay with GAPDH, the Kd turned out to be 18 nM.

B4: GFAb G4 (designed binder)
chain 1: not shown
chain 2: RGVSKSFLL
chain 3: QGITKGYK
With B4, the Kd with GAPDH was more than 500 nM.

B5: GFAb 2.7 (designed binder)
chain 1: not shown
chain 2: VFSSLRYHV
chain 3: LRMDDTNP
modifications: conjugate with phycoerythrin
In the case of B5, in the assay with Streptavidin-PE, binding was characterised by a dissociation constant (Kd) of 140 nM.

B6: GFAb T3 (designed binder)
chain 1: not shown
chain 2: VINPFTVRS
chain 3: NAWVVHRR
On to B6, for which the Kd with TrkB [2] is approximately 10 nM; in the assay with TrkB [1] it was 2 nM; in the assay with TrkB [3], 3.2 nM; in the assay with TrkB [4], 34 nM. The binding result with TrkA/Fc and with TrkC/Fc was “no binding” throughout.

B7: GFAb 1.3 (designed binder)
chain 1: not shown
chain 2: AISRSFFST
chain 3: IRNLKYTN
modifications: conjugate with phycoerythrin
B7 returned a Kd with Streptavidin-PE of 70 nM.

B8: 20-5-8 scaffold (designed binder)
chain 1: not shown
chain 2: LKQHFWSTPRTTS
chain 3: SRERDYRLDYTR
Regarding B8, the binding result with TrkB [5] is “no binding”.

B9: T3 102-103 loop only (designed binder)
chain 1: not shown
chain 2: VINPFTVRS
chain 3: SRERDYRLDYTR
Turning to B9, in the assay with TrkB [1], the dissociation constant (Kd) worked out at 19 nM.

B10: GFAb G8 (designed binder)
chain 1: not shown
chain 2: SHCLFRKCY
chain 3: ARSIRMKV
As to B10, in the assay with GAPDH, the dissociation constant (Kd) is more than 500 nM.

B11: GFAb G7 (designed binder)
chain 1: not shown
chain 2: NVIYPFLYA
chain 3: RVTKTKHK
In turn, B11 showed a Kd with GAPDH of more than 500 nM.
